2 sequences from PMC3590194 can be followed below.

For this data set, the system named is bivalirudin (Angiomax), TMR-labeled (synthetic). As to the kind of experiment: fluorescence anisotropy. The note with it: 5 mM Mg2+?; BB = PBS (no MgCl2/CaCl2) with 5 mM MgCl2 (flow cytometry, 1 h incubation; FA buffer not stated in the material); pH and binding temperature not stated. (Polarisation of emitted light reports the rotation of a fluorescent probe.)

For the sequence “ATCGTCTGCTCCGTCCAATATATTGTGTGACCCCCCTCTTGTTTTGGTGTGAGGTCGTGC [JPB5]”, the Kd (as a rule, the equilibrium constant for the complex coming apart) worked out at 5.76 µM.

In turn, “ATCGTCTGCTCCGTCCAATACGTAACATCCCCGTAATACTACTACGGTCGTGCTGGTTTGGTGTGAGGTCGTGC [JPB2]” registered a Kd of 5.99 µM. The Kd values of the last two sequences are within 1.5-fold of each other.
